# B1: PCSK9-PKE2 tandem 4472_E09 (designed binder)
# PCSK9 domain: MGVSDVPRDLEVVAATPTSLLISWDAPAEGYGYYRITYGETGGNSPVQEFTVPVSKGTATISGLKPGVDYTITVYAVEFDFPGAGYYHRPISINYRTE
# PKE2 domain: GVSDVPRDLEVVAATPTSLLISWDAPAVTVRYYRITYGREVQKYSDLGPLYIYQEFTVPGSKSTATISGLKPGVDYTITVYAVTGSGESPASSKPISINYRTEHHHHHH
# modifications: In the real molecule the two parts given here are one polypeptide, joined by the undisclosed linker A. They are written as two chains only because the linker has no letters.
# notes: not shown: Linker 'A' joining ...NYRTE of the PCSK9 domain to GVSDV... of the PKE2 domain
# B2: PCSK9-PKE2 tandem 4472_B10 (designed binder)
# PCSK9 domain: B1 PCSK9 domain
# PKE2 domain: B1 PKE2 domain
# modifications: The real molecule is ONE polypeptide: PCSK9 domain, undisclosed linker J, PKE2 domain. It is given here as two chains because the linker letters are unknown.
# notes: not shown: The inter-domain linker
# B3: PCSK9-PKE2 tandem 4472_B11 (designed binder, not shown: small tags and cut ends)
# PCSK9 10Fn3: B1 PCSK9 domain
# PKE2 10Fn3: B1 PKE2 domain
# modifications: The two parts are one polypeptide in the real molecule, joined by the undisclosed linker L; they are given here as separate chains.
# B4: PCSK9-PKE2 tandem 4472_D06 (designed binder)
# PCSK9 domain: B1 PCSK9 domain
# PKE2 domain: B1 PKE2 domain
# notes: not shown: The inter-domain linker; In the real molecule the two parts below are one polypeptide joined by this linker
# B5: PCSK9-PKE2 tandem 4472_A04 (designed binder)
# PCSK9 domain: B1 PCSK9 domain
# PKE2 domain: B1 PKE2 domain
# notes: as for B4
# B6: PCSK9-PKE2 tandem 4472_B03 (designed binder)
# PCSK9 domain: B1 PCSK9 domain
# PKE2 domain: B1 PKE2 domain
# notes: as for B4
# B7: PCSK9-PKE2 tandem 4472_B09 (designed binder, not shown: small tags and cut ends)
# PCSK9 10Fn3: B1 PCSK9 domain
# PKE2 10Fn3: B1 PKE2 domain
# modifications: The two parts are one polypeptide in the real molecule, joined by the undisclosed linker K; they are given here as separate chains.
# B8: PCSK9-PKE2 tandem 4472_E05 (designed binder, not shown: small tags and cut ends)
# PCSK9 10Fn3: B1 PCSK9 domain
# PKE2 10Fn3: B1 PKE2 domain
# modifications: The two parts are one polypeptide in the real molecule, joined by the undisclosed linker R; they are given here as separate chains.
# B9: PCSK9-PKE2 tandem 4472_C08 (designed binder)
# PCSK9 domain: B1 PCSK9 domain
# PKE2 domain: B1 PKE2 domain
# modifications: The real molecule is ONE polypeptide: PCSK9 domain, undisclosed linker 'E' (a code letter, not the residue), PKE2 domain. It is given here as two chains because the linker letters are unknown.
# notes: as for B2
# B10: PCSK9-PKE2 tandem 4472_F04 (designed binder)
# PCSK9 domain: B1 PCSK9 domain
# PKE2 domain: B1 PKE2 domain
# modifications: The real molecule is ONE polypeptide: PCSK9 domain, undisclosed linker D, PKE2 domain. It is given here as two chains because the linker letters are unknown.
# notes: as for B2
# Experiments:
# human PCSK9 [1] = molecular target: T1, human PCSK9 (human, UniProt Q8NBP7 31-692); experiment: PCSK9:EGFA FRET 1, competition
# T1 construct: also called hPCSK9; huPCSK9
# human PCSK9 [2] = molecular target: T1, human PCSK9; experiment: PCSK9:LDLR FRET, competition
# human PCSK9 [3] = molecular target: T1, human PCSK9; experiment: PCSK9:EGFA FRET 2, competition
# mouse serum albumin = molecular target: T2, mouse serum albumin (mouse, UniProt P07724 25-608); experiment: direct binding ELISA, albumin coated
# T2 construct: also called MSA; MuSA
# human serum albumin = molecular target: T3, human serum albumin (human, UniProt P02768 25-609); experiment: direct binding ELISA, albumin coated
# T3 construct: immobilized on chips or coated on plates elsewhere; also called HSA; HuSA
# rhesus serum albumin = molecular target: T4, rhesus serum albumin (rhesus, UniProt Q28522 17-600); experiment: direct binding ELISA, albumin coated
# T4 construct: also called RhSA; Rh-SA
Binder,IC50 (human PCSK9 [1]) [nM],IC50 (human PCSK9 [2]) [nM],IC50 (human PCSK9 [3]) [nM],EC50 (mouse serum albumin) [nM],EC50 (human serum albumin) [nM],EC50 (rhesus serum albumin) [nM]
B1,5.81,1.3,4.81,7,23.8,19.8
B2,9.69,2.2,6.97,10.9,67.7,38.9
B3,6.54,2,5.03,13.5,70.1,54
B4,8.12,1.8,6.51,15.6,139,93.1
B5,5.14,1.1,4.44,16.7,144,84
B6,7.45,1.4,4.83,14.8,124,98.2
B7,9.36,2.4,6.95,9.8,69.2,45.1
B8,5.66,1.5,4.35,13.1,102,63.1
B9,9.38,1.9,5.09,4.8,40.4,25.7
B10,3.99,1.2,4.18,3.8,40.3,27.8
